Data reported in publication PMC314469, “Protein Interaction Networks by Proteome Peptide Scanning” (PLoS Biology, 2004).

T1: Yfr024 SH3 (LSB3_YEAST), P43603
T1 chain: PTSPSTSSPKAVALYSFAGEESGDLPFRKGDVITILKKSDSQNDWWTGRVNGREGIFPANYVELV

T2: Myo5 SH3 (MYO5_YEAST), Q04439
T2 chain: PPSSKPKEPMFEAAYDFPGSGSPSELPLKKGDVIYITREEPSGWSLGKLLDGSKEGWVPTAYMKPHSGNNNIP

T3: Boi2 SH3 (BOI2_YEAST), P39969
T3 chain: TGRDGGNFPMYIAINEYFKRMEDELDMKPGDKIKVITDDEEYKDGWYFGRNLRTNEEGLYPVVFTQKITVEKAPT

T4: Boi1 SH3 (BOI1_YEAST), P38041
T4 chain: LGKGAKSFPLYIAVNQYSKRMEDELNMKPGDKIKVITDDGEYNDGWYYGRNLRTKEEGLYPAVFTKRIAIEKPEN

T5: Rvs167 SH3 (RV167_YEAST), P39743
T5 chain: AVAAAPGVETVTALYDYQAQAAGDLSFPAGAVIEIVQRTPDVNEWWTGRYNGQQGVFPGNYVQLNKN

T6: Yhr016c SH3 (YSC84_YEAST), P32793
T6 chain: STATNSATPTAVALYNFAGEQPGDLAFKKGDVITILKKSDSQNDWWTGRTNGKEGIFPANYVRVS

T7: Abp1 SH3 (ABP1_YEAST), P15891
T7 chain: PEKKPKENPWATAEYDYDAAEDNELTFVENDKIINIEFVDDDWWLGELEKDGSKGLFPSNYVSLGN


How the values were obtained:
Test in all cases: SPOT array
[1] = molecular target: T1, Yfr024 SH3 (LSB3_YEAST), P43603
[2] = molecular target: T2, Myo5 SH3 (MYO5_YEAST), Q04439
[3] = molecular target: T3, Boi2 SH3 (BOI2_YEAST), P39969
[4] = molecular target: T4, Boi1 SH3 (BOI1_YEAST), P38041
[5] = molecular target: T5, Rvs167 SH3 (RV167_YEAST), P39743
[6] = molecular target: T6, Yhr016c SH3 (YSC84_YEAST), P32793
[7] = molecular target: Sho1 SH3 (SHO1_YEAST), P40073
[8] = molecular target: T7, Abp1 SH3 (ABP1_YEAST), P15891

Chain of Sho1 SH3 (SHO1_YEAST), P40073 (P40073 295-366): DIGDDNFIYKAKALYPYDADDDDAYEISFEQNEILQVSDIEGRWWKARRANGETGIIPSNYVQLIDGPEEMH

Binder	normalised SPOT signal, Boehringer light units (BLU); mean over the file's lines of this peptide [1]	normalised SPOT signal, Boehringer light units (BLU); mean over the file's lines of this peptide [2]	normalised SPOT signal, Boehringer light units (BLU); mean over the file's lines of this peptide [3]	normalised SPOT signal, Boehringer light units (BLU); mean over the file's lines of this peptide [4]	normalised SPOT signal, Boehringer light units (BLU); mean over the file's lines of this peptide [5]	normalised SPOT signal, Boehringer light units (BLU); mean over the file's lines of this peptide [6]	normalised SPOT signal, Boehringer light units (BLU); mean over the file's lines of this peptide [7]	normalised SPOT signal, Boehringer light units (BLU); mean over the file's lines of this peptide [8]
NESEKSSPWSPYKV [YBR156C 157-170]	408	222	28.4	96.5	74.7	30.5	26.5	
NDLVKRFPEQPPLR [YBR195C 105-118]	1590	21400	4920	75800	23000	1430	12100	
NGKDKSRPPRPPPK [YIL095W 742-755]	12900	2620	31.9	664	127	162	2640	
NIFQKQLPKMPKEY [YGR252W 122-135]	392	276	203	646	555	4960	16700	
NGMPRRIPDYPDAF [Q0045 434-447]	1300	223	318	404	338	858	28.9	
TIEARVHPEPPNKP [YDR330W 403-416]	44.2	375	20.8	0	26.6	1	32.7	36.2
NEFAKFAPDLPVLK [YFR038W 287-300]	132	135	12.3	24.4	69	7.9	99.4	
RPKRRAPPPVPKKP [YIR003W 383-396]	6360	67400	26.1	1170	1050	114	5190	80000
NELVKRFPGHPPLR [YHR108W 109-122]	211	300	7.9	733	55.2	101	37.2	
NFPQRMMPPPPGLV [YKL204W 475-488]	679	618	28.4	228	67.9	95.9	74.5	

Now from value to binder:

normalised SPOT signal, Boehringer light units (BLU); mean over the file's lines of this peptide [1]	normalised SPOT signal, Boehringer light units (BLU); mean over the file's lines of this peptide [2]	normalised SPOT signal, Boehringer light units (BLU); mean over the file's lines of this peptide [3]	normalised SPOT signal, Boehringer light units (BLU); mean over the file's lines of this peptide [4]	normalised SPOT signal, Boehringer light units (BLU); mean over the file's lines of this peptide [5]	normalised SPOT signal, Boehringer light units (BLU); mean over the file's lines of this peptide [6]	normalised SPOT signal, Boehringer light units (BLU); mean over the file's lines of this peptide [7]	normalised SPOT signal, Boehringer light units (BLU); mean over the file's lines of this peptide [8]	Binder
381	173	24.2	72.4	87.9	22.7	3.7		NGTWKYNPTVPNEL [YPR151C 143-156]
246	176	22	462	60.6	17.2	32.2		NELIKQGPKRPTSA [YMR072W 36-49]
211	180	40.8	353	71.4	22.7	331	77200	SKDKKTKPTPPPKP [YNL020C 602-615]
36.9	98.5	61	212	80.7	20.6	39.5		NDNEKKKPSSPTAA [YLL010C 80-93]
710	114	54	71	56.7	203	13000		NDMAKPLPTPPTAE [YOR188W 2-15]
